Laboratory results: publication PMC7094243

Assays:
[1] = target: T1, SARS coronavirus non-structural protein 15 (Nsp15), wild-type, His-tagged (SARS coronavirus (SARS-CoV)), P0C6X7; assay: SEC; details: remark: other sources report otherwise
T1 chain: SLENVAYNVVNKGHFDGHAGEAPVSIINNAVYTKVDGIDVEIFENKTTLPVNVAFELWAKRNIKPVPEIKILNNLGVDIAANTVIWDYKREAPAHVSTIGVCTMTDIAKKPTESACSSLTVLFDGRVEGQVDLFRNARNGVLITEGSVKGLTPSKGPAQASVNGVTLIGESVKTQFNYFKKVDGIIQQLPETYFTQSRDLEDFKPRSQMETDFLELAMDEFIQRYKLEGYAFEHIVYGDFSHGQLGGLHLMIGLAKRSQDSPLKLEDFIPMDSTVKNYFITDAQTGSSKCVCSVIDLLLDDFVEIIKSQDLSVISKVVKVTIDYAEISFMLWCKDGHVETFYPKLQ

[2] = target: T1, SARS coronavirus non-structural protein …; assay: AUC; details: remark: other sources report otherwise

B1: SARS coronavirus non-structural protein 15 (Nsp15), wild-type, His-tagged, P0C6X7 (enzyme)
chain: T1 chain
- percent of total protein hexameric [1]: 90%
- stoichiometry N [1]: 6
- stoichiometry N [2]: 6
